Assay results: patent US20110269680A1 (PANACEA BIOTEC, published 2011)
Numbered stars: 1 amine (or outer) side, 2 acyl side, 3 side chain; on linkers, the order of the positions; unused ones are H or OH. Square brackets hold non-standard residues; d marks the D form. Ends that are not written are not given here. X2 = 2‑amino‑1‑O‑methyl‑2‑deoxy‑alpha‑D‑glucopyranuronic acid, CO[C@H]1O[C@H](C(=O)[*:2])[C@@H](O)[C@H](O)[C@H]1N[*:1]; 2Furoyl(5-aminomethyl) = O=C(c1ccc(CN[*:1])o1)[*:2]; Aib = CC(C)(N)C(=O)O

B1: Seq ID No. 10 (peptide)
peptide: H[2Furoyl(5-aminomethyl)]GTFTSD[Aib]SSYLEGQAAKEFI[Aib]WLVKGRG-NH2
modifications: N-terminus assumed
SMILES: CC[C@H](C)[C@H](NC(=O)[C@H](Cc1ccccc1)NC(=O)[C@H](CCC(=O)O)NC(=O)[C@H](CCCCN)NC(=O)[C@H](C)NC(=O)[C@H](C)NC(=O)[C@H](CCC(N)=O)NC(=O)CNC(=O)[C@H](CCC(=O)O)NC(=O)[C@H](CC(C)C)NC(=O)[C@H](Cc1ccc(O)cc1)NC(=O)[C@H](CO)NC(=O)[C@H](CO)NC(=O)C(C)(C)NC(=O)[C@H](CC(=O)O)NC(=O)[C@H](CO)NC(=O)[C@@H](NC(=O)[C@H](Cc1ccccc1)NC(=O)[C@@H](NC(=O)CNC(=O)c1ccc(CNC(=O)[C@@H](N)Cc2c[nH]cn2)o1)[C@@H](C)O)[C@@H](C)O)C(=O)NC(C)(C)C(=O)N[C@@H](Cc1c[nH]c2ccccc12)C(=O)N[C@@H](CC(C)C)C(=O)N[C@H](C(=O)N[C@@H](CCCCN)C(=O)NCC(=O)N[C@@H](CCCNC(=N)N)C(=O)NCC(N)=O)C(C)C
B2: Seq ID No. 09 (peptide)
peptide: HXEGTFTSDXSSYLEGQAAKEFIXWLVKGRG
modifications: Xaa1 at position 2 is furan aminoacid (5-aminomethyl-furan-2 carboxylic acid); Xaa2 at position 10 and Xaa3 at position 24 are dialkylated aminoacid (alpha-aminoisobutyric acid); C-terminal amide (Gly-NH2)
B3: Seq ID No. 11 (peptide)
peptide: HXGTFTSDVSSYLEGQAAKEFIAWLVKXR
modifications: Xaa1 at position 2 is furan aminoacid (5-aminomethyl-furan-2 carboxylic acid); Xaa2 at position 28 is dialkylated aminoacid (alpha-aminoisobutyric acid); C-terminal amide (Arg-NH2)
B4: Seq ID No. 05 (peptide)
peptide: HGEGTFTSDXSSYLEGQAAKEFIXWLVKGR
modifications: Xaa1 at position 10 and Xaa2 at position 24 are dialkylated aminoacid (alpha-aminoisobutyric acid); C-terminal amide (Arg-NH2)
B5: Seq ID No. 02 (peptide)
peptide: H[2Furoyl(5-aminomethyl)]GTFTSDVSSYLEGQAAKEFIAWLVKGRG-NH2
modifications: N-terminus assumed
SMILES: CC[C@H](C)[C@H](NC(=O)[C@H](Cc1ccccc1)NC(=O)[C@H](CCC(=O)O)NC(=O)[C@H](CCCCN)NC(=O)[C@H](C)NC(=O)[C@H](C)NC(=O)[C@H](CCC(N)=O)NC(=O)CNC(=O)[C@H](CCC(=O)O)NC(=O)[C@H](CC(C)C)NC(=O)[C@H](Cc1ccc(O)cc1)NC(=O)[C@H](CO)NC(=O)[C@H](CO)NC(=O)[C@@H](NC(=O)[C@H](CC(=O)O)NC(=O)[C@H](CO)NC(=O)[C@@H](NC(=O)[C@H](Cc1ccccc1)NC(=O)[C@@H](NC(=O)CNC(=O)c1ccc(CNC(=O)[C@@H](N)Cc2c[nH]cn2)o1)[C@@H](C)O)[C@@H](C)O)C(C)C)C(=O)N[C@@H](C)C(=O)N[C@@H](Cc1c[nH]c2ccccc12)C(=O)N[C@@H](CC(C)C)C(=O)N[C@H](C(=O)N[C@@H](CCCCN)C(=O)NCC(=O)N[C@@H](CCCNC(=N)N)C(=O)NCC(N)=O)C(C)C
B6: Seq ID No. 07 (peptide)
peptide: H[X2]GTFTSDVSSYLEGQAAKEFIAWLVKGR-NH2
modifications: N-terminus assumed
SMILES: CC[C@H](C)[C@H](NC(=O)[C@H](Cc1ccccc1)NC(=O)[C@H](CCC(=O)O)NC(=O)[C@H](CCCCN)NC(=O)[C@H](C)NC(=O)[C@H](C)NC(=O)[C@H](CCC(N)=O)NC(=O)CNC(=O)[C@H](CCC(=O)O)NC(=O)[C@H](CC(C)C)NC(=O)[C@H](Cc1ccc(O)cc1)NC(=O)[C@H](CO)NC(=O)[C@H](CO)NC(=O)[C@@H](NC(=O)[C@H](CC(=O)O)NC(=O)[C@H](CO)NC(=O)[C@@H](NC(=O)[C@H](Cc1ccccc1)NC(=O)[C@@H](NC(=O)CNC(=O)[C@H]1O[C@H](OC)[C@H](NC(=O)[C@@H](N)Cc2c[nH]cn2)[C@@H](O)[C@@H]1O)[C@@H](C)O)[C@@H](C)O)C(C)C)C(=O)N[C@@H](C)C(=O)N[C@@H](Cc1c[nH]c2ccccc12)C(=O)N[C@@H](CC(C)C)C(=O)N[C@H](C(=O)N[C@@H](CCCCN)C(=O)NCC(=O)N[C@@H](CCCNC(=N)N)C(N)=O)C(C)C
B7: Seq ID No. 04 (peptide)
peptide: H[2Furoyl(5-aminomethyl)]EGTFTSD[Aib]SSYLEGQAAKEFI[Aib]WLVKGR-NH2
modifications: N-terminus assumed
SMILES: CC[C@H](C)[C@H](NC(=O)[C@H](Cc1ccccc1)NC(=O)[C@H](CCC(=O)O)NC(=O)[C@H](CCCCN)NC(=O)[C@H](C)NC(=O)[C@H](C)NC(=O)[C@H](CCC(N)=O)NC(=O)CNC(=O)[C@H](CCC(=O)O)NC(=O)[C@H](CC(C)C)NC(=O)[C@H](Cc1ccc(O)cc1)NC(=O)[C@H](CO)NC(=O)[C@H](CO)NC(=O)C(C)(C)NC(=O)[C@H](CC(=O)O)NC(=O)[C@H](CO)NC(=O)[C@@H](NC(=O)[C@H](Cc1ccccc1)NC(=O)[C@@H](NC(=O)CNC(=O)[C@H](CCC(=O)O)NC(=O)c1ccc(CNC(=O)[C@@H](N)Cc2c[nH]cn2)o1)[C@@H](C)O)[C@@H](C)O)C(=O)NC(C)(C)C(=O)N[C@@H](Cc1c[nH]c2ccccc12)C(=O)N[C@@H](CC(C)C)C(=O)N[C@H](C(=O)N[C@@H](CCCCN)C(=O)NCC(=O)N[C@@H](CCCNC(=N)N)C(N)=O)C(C)C
B8: Seq ID No. 08 (peptide)
peptide: H[2Furoyl(5-aminomethyl)]GTFTSDVSSYLEGQAAKEFIAWLVKGR-NH2
modifications: N-terminus assumed
SMILES: CC[C@H](C)[C@H](NC(=O)[C@H](Cc1ccccc1)NC(=O)[C@H](CCC(=O)O)NC(=O)[C@H](CCCCN)NC(=O)[C@H](C)NC(=O)[C@H](C)NC(=O)[C@H](CCC(N)=O)NC(=O)CNC(=O)[C@H](CCC(=O)O)NC(=O)[C@H](CC(C)C)NC(=O)[C@H](Cc1ccc(O)cc1)NC(=O)[C@H](CO)NC(=O)[C@H](CO)NC(=O)[C@@H](NC(=O)[C@H](CC(=O)O)NC(=O)[C@H](CO)NC(=O)[C@@H](NC(=O)[C@H](Cc1ccccc1)NC(=O)[C@@H](NC(=O)CNC(=O)c1ccc(CNC(=O)[C@@H](N)Cc2c[nH]cn2)o1)[C@@H](C)O)[C@@H](C)O)C(C)C)C(=O)N[C@@H](C)C(=O)N[C@@H](Cc1c[nH]c2ccccc12)C(=O)N[C@@H](CC(C)C)C(=O)N[C@H](C(=O)N[C@@H](CCCCN)C(=O)NCC(=O)N[C@@H](CCCNC(=N)N)C(N)=O)C(C)C

Target: GLP-1 receptor
Assay: cell-based or functional assay

Q: H[2Furoyl(5-aminomethyl)]EGTFTSDVSSYLEGQAAKEFIAWLVKGRG-NH2 [Seq ID No. 01] was tested. Which “EC50, Receptor Functional assay (intracellular cAMP in CHO/GLP-1R cells)” value (shortened to “EC50 … (intracellular cAMP in CHO/GLP-1R cells)”) did it give?
A: 103 pM

Q: B1 was tested. Which “EC50 … (intracellular cAMP in CHO/GLP-1R cells)” value did it give?
A: 3380 pM

Q: With H[X2]EGTFTSDVSSYLEGQAAKEFIAWLVKGR-NH2 [Seq ID No. 06] as the binder, how does the “EC50 … (intracellular cAMP in CHO/GLP-1R cells)” value read?
A: 838 pM

Q: For B2, which “EC50 … (intracellular cAMP in CHO/GLP-1R cells)” value is on record?
A: 1000 pM

Q: How did the “EC50 … (intracellular cAMP in CHO/GLP-1R cells)” value turn out when B3 was run?
A: 102 pM

Q: Which “EC50 … (intracellular cAMP in CHO/GLP-1R cells)” value does the source give for B4 here?
A: 83 pM

Q: How did the “EC50 … (intracellular cAMP in CHO/GLP-1R cells)” value turn out when B5 was run?
A: 43 pM

Q: H[2Furoyl(5-aminomethyl)]EGTFTSDVSSYLEGQAAKEFIAWLVKGR-NH2 [Seq ID No. 03] was tested. Which “EC50 … (intracellular cAMP in CHO/GLP-1R cells)” value did it give?
A: 61 pM

Q: H[2Furoyl(5-aminomethyl)]GTFTSDVLSYQEGQAAKLFIEWLVKGR-NH2 [Seq ID No. 12] was tested. Which “EC50 … (intracellular cAMP in CHO/GLP-1R cells)” value did it give?
A: 2240 pM

Q: With B6 as the binder, how does the “EC50 … (intracellular cAMP in CHO/GLP-1R cells)” value read?
A: 56 pM

Q: With B7 as the binder, how does the “EC50 … (intracellular cAMP in CHO/GLP-1R cells)” value read?
A: 72 pM

Q: How did the “EC50 … (intracellular cAMP in CHO/GLP-1R cells)” value turn out when B8 was run?
A: 601 pM
